From article PMC2629585, “Local Inflammation Induces Complement Crosstalk Which Amplifies the Antimicrobial Response” (PLoS Pathogens, 2009) come the findings set out here.

This assay concerns the target T1, C1q (UniProt P02745 23-245; P02746 28-253; P02747 29-245).
T1 construct: complement C1q subcomponent subunit A; complement C1q subcomponent subunit B; complement C1q subcomponent subunit C; source: bought: Quidel (San Diego, CA); copies: + +
Briefly: ELISA; competition; 0.8 ug CRP immobilised; 0.8 ug C1q with increasing L-ficolin or 0.8 ug L-ficolin with increasing C1q; TBS, 0.05% Tween-20, 1% HSA, pH 7.4, 2.5 mM calcium. The following applies: both partners purified. Background: An ELISA detects its analyte on a solid surface through an enzyme-linked reagent.

T1 sequence (P02745 23-245, chain 1 of 3): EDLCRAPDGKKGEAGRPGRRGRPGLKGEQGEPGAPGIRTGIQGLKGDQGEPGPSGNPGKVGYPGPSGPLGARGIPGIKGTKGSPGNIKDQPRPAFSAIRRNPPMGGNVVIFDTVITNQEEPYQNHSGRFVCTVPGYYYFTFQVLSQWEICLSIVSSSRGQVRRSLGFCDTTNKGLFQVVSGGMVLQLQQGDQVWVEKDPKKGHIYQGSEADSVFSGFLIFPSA
T1 sequence (P02746 28-253, chain 2 of 3): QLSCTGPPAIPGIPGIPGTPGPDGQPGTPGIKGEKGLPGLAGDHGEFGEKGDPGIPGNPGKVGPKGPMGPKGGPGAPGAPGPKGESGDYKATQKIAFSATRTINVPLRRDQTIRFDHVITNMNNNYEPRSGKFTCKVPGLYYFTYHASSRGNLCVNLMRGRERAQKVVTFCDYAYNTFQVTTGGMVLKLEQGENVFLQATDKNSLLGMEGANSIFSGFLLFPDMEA
T1 sequence (P02747 29-245, chain 3 of 3): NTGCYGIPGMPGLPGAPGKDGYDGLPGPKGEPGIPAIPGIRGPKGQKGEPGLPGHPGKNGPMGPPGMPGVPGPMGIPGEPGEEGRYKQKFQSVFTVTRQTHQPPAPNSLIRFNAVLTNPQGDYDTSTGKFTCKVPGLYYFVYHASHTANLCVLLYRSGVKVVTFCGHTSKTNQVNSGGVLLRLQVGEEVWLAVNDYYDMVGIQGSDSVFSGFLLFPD

B1: C-reactive protein (CRP), human, purified (Sigma) (natural protein, UniProt P02741 19-224, looked up)
chain: QTDMSRKAFVFPKESDTSYVSLKAPLTKPLKAFTVCLHFYTELSSTRGYSIFSYATKRQDNEILIFWSKDIGYSFTVGGSEILFEVPEVTVAPVHICTSWESASGIVEFWVDGKPRVRKSLKKGYTVGAEASIILGQEQDSFGGNFEGSQSLVGDIGNVNMWDFVLSPDEINTIYLGGPFSPNVLNWRALKYEVQGEVFTKPQLWP
notes: human C-reactive protein, bought from Sigma; purity checked by SDS PAGE and mass spectrometry; source: bought: Sigma
As for B1, the binding result is reported as “binds”.
